Among the data in the Immune Epitope Database (IEDB) are IC50 values, retold here.

The target in this experiment is HLA-A*02:01. In words: IEDB peptide-MHC binding, purified MHC/competitive/radioactivity; ≥ and ≤ were set here for values at or beyond the usual limits of such assays. The settings on record: source organism: Vaccinia virus WR.
As a reminder, the IC50 is the midpoint of a concentration-inhibition curve. VLVDNVDFA: the IC50 was found to be 20 nM. Regarding VLVDNVDFAT, the IC50 amounted to 16 nM.

With VLYDEFKCFI, the IC50 is 5.9 nM. As for VLYNGVNYL, the IC50 worked out at 0.25 nM. The value for VLYPVIFIT was 9.3 nM; that for VMAYVGIKL was 1300 nM; that for VMDNDDNIL was 719 nM. As for VMISILNPV, the IC50 worked out at 33 nM. The value for VMKLFTISV was 8 nM.

As to VMNNLSELT, the IC50 is 2080 nM.

On to VMNNLSELTA, for which the IC50 came to 453 nM. The value for VMTPSPFYT was 2660 nM. In the case of VMTPSPFYTV it was 26 nM. The value for VMVTITQNV was 37 nM; that for VTINNLKMML was 3060 nM; that for VTLLCVLPA was 76 nM.

VTLLCVLPAV: the IC50 was determined as 3.8 nM. For the sequence VTLQKVLHV, the IC50 was determined as 622 nM. On to VTMVDKPTEL, for which the half-maximal inhibitory concentration (IC50) was found to be 3360 nM. The value for VVCNDLYKV was 174 nM. In the case of VVLDATNDGL it was 1450 nM.

As to VVMAYVGIKL, the IC50 was determined as 219 nM. Consider VVSVDCNKEL, for which the IC50 worked out at 2430 nM. VVTLLCVLPA: the IC50 worked out at 262 nM.

On to VVVPIKFIA, for which the half-inhibitory concentration (IC50) is 2840 nM.

With VVYSTCTVPT, the IC50 is 2320 nM. Consider WLIGFDFDV, for which the IC50 stood at 0.06 nM. For the sequence WLLCKLSCA, the IC50 is 151 nM. The value for WLLGFIKCI was 25 nM; that for WLTSILLSL was 1.2 nM. In the case of WLYGYNFII, the IC50 amounted to 0.19 nM.

As to YANCSSISI, the IC50 was found to be 901 nM.

With YANNDKFRL, the IC50 worked out at 587 nM. For the sequence YASIINRDI, the IC50 was 2230 nM. For the sequence YAVTKTDGI, the IC50 was 3060 nM. In the case of YAYGWIPET it was 43 nM. In the case of YIDALAKNA it was 473 nM; in that of YIDAYVSRL, 1.9 nM. As to YIFAALGGSV, the IC50 stood at 45 nM. As to YIIDKDTNSV, the IC50 was determined as 30 nM. The value for YIIDWMVDI was 0.92 nM; that for YIIKKNDIV was 2000 nM. As to YIIKNTFNV, the IC50 is 0.54 nM. Turning to YIIRVTTEL, the IC50 is 36 nM.

For YIIRYPVKRI, the IC50 is 1020 nM. For YILCNMALL, the concentration for half-maximal inhibition (IC50) was determined as 0.38 nM. In the case of YILHSDYQL it was 13 nM; in that of YILRGLLEA, 2.5 nM. In the case of YINTHNEVGI it was 1640 nM; in that of YISELYNKPL, 626 nM; in that of YITALNHLV, 0.71 nM. With YITALNHLVL, the concentration for half-maximal inhibition (IC50) was 280 nM. In the case of YIYYFFIRL it was 8.8 nM; in that of YLAIPDLYGI, 8.2 nM; in that of YLCTFMIIT, 87 nM. In the case of YLDDHRYLFI it was 12 nM; in that of YLDFLLLLL, 0.43 nM; in that of YLDFLLLLLI, 18 nM.

In the case of YLDGQLARL, the IC50 was 1.3 nM. As for YLFDYPHFEA, the half-maximal inhibitory concentration (IC50) is 0.085 nM. In the case of YLFGGFSTL it was 0.87 nM; in that of YLFNAIETM, 1.5 nM. The value for YLFRIVSTV was 1.2 nM; that for YLFTFTIYT was 3.3 nM; that for YLGMFNPYSL was 0.16 nM.

As to YLIHDNIMYT, the IC50 is 1.3 nM. In the case of YLIKLIEPV it was 8 nM. As for YLKEYIPKA, the half-maximal inhibitory concentration (IC50) amounted to 1.7 nM. YLKIGTLLV: the IC50 came to 17 nM.

On to YLLAVCGCI, for which the IC50 is 13 nM. Regarding YLLCCNYKL, the IC50 stood at 0.36 nM. Turning to YLLDDVLYT, the IC50 turned out to be 1.3 nM. The value for YLLDRGADI was 8.6 nM; that for YLLFGIKCI was 27 nM; that for YLLPGFVLT was 5.7 nM. In the case of YLLSGSDLFI it was 0.25 nM; in that of YLLSLFSTLV, 0.32 nM; in that of YLMDEEVPA, 13 nM. In the case of YLMPYSVYI, the IC50 was determined as 0.26 nM. For YLNTNKLFFA, the IC50 was found to be 9.9 nM. The value for YLPKQPEGV was 1.2 nM; that for YLPKQPEGVI was 279 nM; that for YLPLSVFII was 6.2 nM. Regarding YLSAKITTL, the IC50 stood at 5.5 nM. In the case of YLSSWTPVV it was 0.33 nM; in that of YLTAIQDFI, 1.9 nM. The value for YLTVSFIDET was 4780 nM. In the case of YLVDVETIGV it was 0.17 nM. In the case of YLVIYLNRT, the IC50 came out at 819 nM. As for YLVNAIIDSA, the IC50 worked out at 134 nM.

With YLVPNVIGGV, the IC50 came to 0.61 nM. Consider YLVSSLSEI, for which the IC50 came to 6.5 nM. The value for YLYALYSPL was 0.13 nM; that for YLYETYHLI was 2.4 nM.

For YLYQPCDLL, the IC50 was 1.8 nM.

Consider YMATTILEMV, for which the IC50 turned out to be 1.5 nM. The value for YMDLSYHGV was 1.1 nM. On to YMDLSYHGVT, for which the IC50 was determined as 85 nM.
